# Experimental data from patent US20120195879A1.
# Key:
# human Kv1.1 (human) = human Kv1.1 (human) (UniProt Q09470); experiment: cell-based or functional assay
# human Kv1.3 (human) = human Kv1.3 (human) (UniProt P22001); experiment: cell-based or functional assay
# Sequence of human Kv1.3 (human) (P22001 whole entry): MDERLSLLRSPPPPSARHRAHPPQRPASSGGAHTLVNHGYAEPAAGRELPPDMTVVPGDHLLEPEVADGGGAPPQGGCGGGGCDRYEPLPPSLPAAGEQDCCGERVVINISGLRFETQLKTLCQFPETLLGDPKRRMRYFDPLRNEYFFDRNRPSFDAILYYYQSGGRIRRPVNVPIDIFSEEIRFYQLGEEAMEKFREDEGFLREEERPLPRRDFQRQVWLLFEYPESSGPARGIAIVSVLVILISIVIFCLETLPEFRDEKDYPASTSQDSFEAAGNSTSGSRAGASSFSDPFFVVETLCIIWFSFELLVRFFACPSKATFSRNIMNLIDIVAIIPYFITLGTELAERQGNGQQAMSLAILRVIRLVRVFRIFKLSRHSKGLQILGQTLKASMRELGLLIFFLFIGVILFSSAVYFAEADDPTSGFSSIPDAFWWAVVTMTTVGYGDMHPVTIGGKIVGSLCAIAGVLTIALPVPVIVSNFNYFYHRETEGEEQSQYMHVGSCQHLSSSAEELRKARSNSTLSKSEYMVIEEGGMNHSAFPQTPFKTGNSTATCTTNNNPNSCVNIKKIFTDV
# Sequence of human Kv1.1 (human) (Q09470 whole entry): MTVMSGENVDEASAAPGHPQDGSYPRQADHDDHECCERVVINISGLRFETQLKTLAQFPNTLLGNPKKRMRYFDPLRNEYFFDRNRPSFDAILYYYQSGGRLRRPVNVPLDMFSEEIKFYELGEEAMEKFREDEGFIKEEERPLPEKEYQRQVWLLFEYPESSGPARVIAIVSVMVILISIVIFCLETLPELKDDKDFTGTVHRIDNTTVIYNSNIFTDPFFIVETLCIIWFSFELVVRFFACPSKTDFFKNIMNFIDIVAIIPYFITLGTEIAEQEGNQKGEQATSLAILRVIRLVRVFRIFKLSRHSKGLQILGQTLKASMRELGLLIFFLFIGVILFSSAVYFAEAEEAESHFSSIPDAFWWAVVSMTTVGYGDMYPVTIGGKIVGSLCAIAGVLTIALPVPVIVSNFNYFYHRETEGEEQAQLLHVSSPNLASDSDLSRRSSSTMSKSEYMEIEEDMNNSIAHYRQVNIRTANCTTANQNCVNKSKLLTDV
Substance,Kv1.1 (PX) IC50 (human Kv1.1 (human)),Kv1.1/Kv1.3 Selectivity Ratio by PX (human Kv1.3 (human)),Kv1.3 (PX) IC50 (human Kv1.3 (human)),"Potency Relative to ShK (WB, IL2) (human Kv1.3 (human))",WB (IFNg) IC50 (human Kv1.3 (human)),WB (IL-2) IC50 (human Kv1.3 (human))
20 kDa-PEG-ShK (peptide),1.63 nM,5.44,0.299 nM,5.67,0.84 nM,0.38 nM
Monovalent Fc/Fc-L10-ShK[2-35] heterodimer (Fc fusion),–,–,–,32.1,–,–
